# Reference: US20110059082A1
# Legend:
# [1] = target: complement factor C1q (purified recombinant C1q) (UniProt P02745); assay: flow cytometry, C1q binding to antibody-coated PBMCs, FITC anti-C1q; antibody 1.2 µg/ml
# [2] = target: complement factor C1q (purified recombinant C1q) (UniProt P02745); assay: flow cytometry, C1q binding to antibody-coated PBMCs, FITC anti-C1q; antibody 150 µg/ml
# [3] = target: complement factor C1q (purified recombinant C1q) (UniProt P02745); assay: flow cytometry, C1q binding to antibody-coated PBMCs, FITC anti-C1q; antibody 2.3 µg/ml
# [4] = target: complement factor C1q (purified recombinant C1q) (UniProt P02745); assay: flow cytometry, C1q binding to antibody-coated PBMCs, FITC anti-C1q; antibody 4.7 µg/ml
# [5] = target: complement factor C1q (purified recombinant C1q) (UniProt P02745); assay: flow cytometry, C1q binding to antibody-coated PBMCs, FITC anti-C1q; antibody 9.4 µg/ml
# [6] = target: complement factor C1q (purified recombinant C1q) (UniProt P02745); assay: flow cytometry, C1q binding to antibody-coated PBMCs, FITC anti-C1q; antibody 18.8 µg/ml
# [7] = target: complement factor C1q (purified recombinant C1q) (UniProt P02745); assay: flow cytometry, C1q binding to antibody-coated PBMCs, FITC anti-C1q; antibody 37.5 µg/ml
# [8] = target: complement factor C1q (purified recombinant C1q) (UniProt P02745); assay: flow cytometry, C1q binding to antibody-coated PBMCs, FITC anti-C1q; antibody 75.0 µg/ml
# Sequence of complement factor C1q (purified recombinant C1q) (P02745 23-245, chain 1 of 3): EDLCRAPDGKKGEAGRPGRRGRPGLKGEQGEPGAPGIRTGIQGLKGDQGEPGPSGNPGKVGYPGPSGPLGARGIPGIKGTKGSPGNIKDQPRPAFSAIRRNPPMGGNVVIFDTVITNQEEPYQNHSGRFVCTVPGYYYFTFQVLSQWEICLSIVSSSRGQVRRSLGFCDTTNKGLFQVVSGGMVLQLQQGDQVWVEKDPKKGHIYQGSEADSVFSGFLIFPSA
# Sequence of complement factor C1q (purified recombinant C1q) (P02746 28-253, chain 2 of 3, further chain): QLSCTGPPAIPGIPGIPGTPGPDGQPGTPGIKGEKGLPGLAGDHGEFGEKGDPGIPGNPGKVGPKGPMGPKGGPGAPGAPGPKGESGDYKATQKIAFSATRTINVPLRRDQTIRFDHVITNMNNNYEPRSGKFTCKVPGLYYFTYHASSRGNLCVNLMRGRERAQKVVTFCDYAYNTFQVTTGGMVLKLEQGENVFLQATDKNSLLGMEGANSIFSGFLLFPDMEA
# Sequence of complement factor C1q (purified recombinant C1q) (P02747 29-245, chain 3 of 3, further chain): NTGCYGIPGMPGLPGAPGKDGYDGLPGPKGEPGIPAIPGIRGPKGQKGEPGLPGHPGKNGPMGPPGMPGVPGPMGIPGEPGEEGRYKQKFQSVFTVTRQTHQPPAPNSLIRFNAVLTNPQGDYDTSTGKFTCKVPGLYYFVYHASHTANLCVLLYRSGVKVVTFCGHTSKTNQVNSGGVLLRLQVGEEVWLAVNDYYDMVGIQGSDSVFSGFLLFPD
Mean fluorescence intensity [1] [MFI],Mean fluorescence intensity [2] [MFI],Mean fluorescence intensity [3] [MFI],Mean fluorescence intensity [4] [MFI],Mean fluorescence intensity [5] [MFI],Mean fluorescence intensity [6] [MFI],Mean fluorescence intensity [7] [MFI],Mean fluorescence intensity [8] [MFI],Substance
302,782,371,491,541,672,732,766,ATG (Tecelac) (antibody)
193,199,199,198,210,217,205,200,humanized B-F5 H37L/L4M IgG1 (BT061) (antibody)
